One molecule from publication PMC7283332, “convertibleCARs: A chimeric antigen receptor system for flexible control of activity and antigen targeting” (Communications Biology, 2020) can be followed below.

The target in this assay is T1, ULBP2 α1α2 domain, C-terminal 6×-His (human, UniProt Q9BZM5 29-212).
T1 construct: ULBP2, human, α1α2 domains, UniProtKB Q9BZM5 residues 29-212; monomeric protein; also called wild-type ULBP2; MIC-His ligand; source: Expi293 supernatant, purified (Ni-NTA); not shown: His6, C-terminal, kept
T1 sequence (looked up): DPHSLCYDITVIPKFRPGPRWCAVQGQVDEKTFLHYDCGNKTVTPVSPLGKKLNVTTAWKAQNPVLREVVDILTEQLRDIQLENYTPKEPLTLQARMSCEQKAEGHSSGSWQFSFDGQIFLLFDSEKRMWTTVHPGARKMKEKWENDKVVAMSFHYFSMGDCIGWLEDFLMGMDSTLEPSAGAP
In words: BLI; FortéBio Octet; Fc-wtNKG2D, Fc-iNKG2D.YA or Fc-iNKG2D.AF captured on anti-human IgG Fc capture (AHC) biosensor tips; titration series of monomeric MIC-His ligands or monomeric ULBP2 variants. Particulars: both partners purified. For orientation: In BLI a coated tip is dipped into the sample, and binding shifts an interference pattern.

B1: Fc-wtNKG2D (Fc fusion, human, UniProt P26718 78-216, looked up)
chain: FLNSLFNQEVQIPLTESYCGPCPKNWICYKNNCYQFFDESKNWYESQASCMSQNASLLKVYSKEDQDLLKLVKSYHWMGLVHIPTNGSWQWEDGSILSPNLLTIIEMQKGDCALYASSFKGYIENCSTPNTYICMQRTV
notes: NKG2D wild-type ectodomain, human, UniProtKB P26718 residues 78-216; NKG2D is fused to the C-terminus of the Fc through a factor Xa site linker Ile-Glu-Gly-Arg (IEGR); also called wild-type NKG2D; source: Expi293 cells, secreted, purified (Protein A, SEC); not shown: Fc (human IgG1), N-terminal, kept
On to B1, for which the binding result is “binds”.
